Biological target: T1, NKG2D (human, UniProt P26718 78-216, limits assumed)
T1 construct: XENP25379 (human) and XENP25380 (cynomolgus) were the panning antigens; also called Recombinant human NKG2D (XENP25379); CD314
T1 sequence (looked up): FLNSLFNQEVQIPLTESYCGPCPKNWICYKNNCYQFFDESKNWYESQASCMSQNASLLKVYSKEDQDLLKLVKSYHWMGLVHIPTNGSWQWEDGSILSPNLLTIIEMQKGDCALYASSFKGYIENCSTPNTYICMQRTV
Test: ELISA of phage clones on NKG2D

binding result: binds
B1: 1D2B4[NKG2D] (antibody, V domains shown)
VH: EVQLLESGGGLVQPGGSLRLSCAASGFTFSSFGMSWVRQAPGKGLEWVSTISGSGSTTYYADSVKGRFTISRDNSKNTLYLQMNSLRAEDTAVYYCAKGVFSEWHYYFDYWGQGTLVTVSS
VL: not shown

From patent US20230151095A1 (Xencor, published 2023)
